Assay results taken from publication PMC11524583, “Neurons enhance blood–brain barrier function via upregulating claudin-5 and VE-cadherin expression due to glial cell line-derived neurotrophic factor secretion” (eLife, 2024).
Several values for one entry are separate records, joined by “and”; a condition that tells them apart may be missing. Identical values can stand only once.

Tests used:
Assay type in all cases: cell-based, Homo sapiens
[1] = tested on: claudin-5; assay: Western blot of claudin-5 expression in hCMEC/D3 cells
In short: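 hCMEC/D3 cells were cultured in U251/SH-SY5Y co-culture conditioned medium or 200 pg/ml GDNF, with or without 0.25–1.0 μg/ml anti-GDNF antibody, for 6 days; alternatively, after 10 nM siRNA or FOXO1 plasmid transfection, cells received GDNF medium for 72 hr. RIPA lysates were analysed by SDS-PAGE immunoblot with ECL detection.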

[2] = tested on: p-ERK/ERK; assay: Western blot of p-ERK/ERK in hCMEC/D3 cells
Description: (§1) Whole-cell and tissue lysates, nucleoprotein, and cytoplasmic protein were prepared using RIPA Lysis Buffer (Beyotime, Shanghai, China) as the described method ([Wu et al., 2021]). Proteins were separated through sodium dodecyl sulfate–polyacrylamide gel electrophoresis and transferred onto nitrocellulose or polyvinylidene difluoride membranes. The membranes were blocked with 5% skim milk and incubated with corresponding primary antibodies at 4°C overnight. After being washed with Tris-buffered saline Tween buffer, the membranes were incubated with secondary antibodies (Cell Signaling Technology, MA, USA) at 1:3000 dilution: Anti-mouse IgG, HRP-linked Antibody (#7076), Anti-rabbit IgG, HRP-linked Antibody (#7074). Protein levels were visualized using a highly sensitive ECL western blotting substrate and a gel imaging system (Tanon Science & Technology, Shanghai, China).
Exogenous and endogenous GDNF in the medium was neutralized with anti-GDNF antibody (#AF-212-NA, R&D system, Minneapolis, MN, USA). 0.25, 0.5, and 1.0 μg/ml anti-GDNF antibody was added into the US-CM or medium containing 200 pg/ml GDNF, and then the medium was preincubated at 4°C for 1 hr. The hCMEC/D3 cells were incubated with 200 pg/ml GDNF or US-CM containing anti-GDNF antibody or not for 6 days, and then cell lysate was collected for western blot. The medium was replaced every 24 hr.

[3] = tested on: p-JNK/JNK; assay: Western blot of p-JNK/JNK in hCMEC/D3 cells
Description: as §1

[4] = relative to Con (mean 1.000), mean of 4, Figure 3B
[5] = relative to Con (mean 1.000), mean of 4, Figure 3C
[6] = relative to Con (mean 1.000), single replicates, Figure 3B
[7] = relative to Con (mean 1.000), single replicates, Figure 3C

B1: GDNF: glial cell line-derived neurotrophic factor, recombinant protein (R&D system) (protein, UniProt P39905 78-211, looked up)
Glial cell line-derived …: SPDKQMAVLPRRERNRQAAAANPENSRGKGRRGQRGKNRGCVLTAIHLNVTDLGLGYETKEELIFRYCSGSCDAAETTYDKILKNLSRNRRLVSDKVGQACCRPIAFDDDLSFLDDNLVYHILRKHSAKRCGCI
[1]; 50pg, Figure 2D, Con = 1.000
  Claudin-5/β-actin Relative Expression, Mean: 1.434
[1]; 50pg, Figure 2D, relative to Con, single replicates
  Claudin-5/β-actin Relative Expression: 1.162 and 1.622 and 1.551 and 1.402
[1]; 100pg, Figure 2D, Con = 1.000
  Claudin-5/β-actin Relative Expression, Mean: 1.645
[1]; 100pg, Figure 2D, relative to Con, single replicates
  Claudin-5/β-actin Relative Expression: 1.855 and 1.384 and 1.893 and 1.449
[1]; 200pg, Figure 2D, Con = 1.000
  Claudin-5/β-actin Relative Expression, Mean: 2.035
[1]; 200pg, Figure 2D, relative to Con, single replicates
  Claudin-5/β-actin Relative Expression: 2.027 and 2.014 and 1.765 and 2.333
[1]; Figure 2I, hCMEC/D3 cells, group mean, relative to Con
  Claudin-5/β-actin Mean: 1.520
[1]; Figure 2I, hCMEC/D3 cells, individual replicates, relative to Con
  Claudin-5/β-actin Relative Expression: 1.748 and 1.509 and 1.594 and 1.229
[1]; Figure 2K, hCMEC/D3 cells, group mean, relative to Con
  Claudin-5/β-actin Mean: 1.490
[1]; Figure 2K, hCMEC/D3 cells, individual replicates, relative to Con
  Claudin-5/β-actin Relative Expression: 1.399 and 1.426 and 1.661 and 1.475
[1]; Figure 5G, hCMEC/D3 cells, group mean, NC = 1.000
  Claudin-5/β-actin Relative Expression, Mean: 1.393
[1]; Figure 5G, hCMEC/D3 cells, single replicates, relative to NC group
  Claudin-5/β-actin Relative Expression: 1.279 and 1.343 and 1.470 and 1.479
[1]; hCMEC/D3 cells incubated with conditioned medium or neurotrophic factor vs normal medium
  claudin-5 expression: induced the expression of claudin-5 and VE-cadherin in a concentration-dependent manner
[1]; relative to Con (mean 1.000), mean of 4, Figure 3A
  Claudin-5/β-actin Relative Expression, Mean: 1.789
[1]; [4]
  Claudin-5/β-actin Relative Expression, Mean: 1.788
[1]; [5]
  Claudin-5/β-actin Relative Expression, Mean: 2.325
[1]; relative to Con (mean 1.000), mean of 4, Figure 3D
  Claudin-5/β-actin Relative Expression, Mean: 1.421
[1]; relative to Con (mean 1.000), single replicates, Figure 3A
  Claudin-5/β-actin Relative Expression: 1.761 and 1.657 and 1.692 and 2.046
[1]; [6]
  Claudin-5/β-actin Relative Expression: 1.594 and 2.146 and 1.495 and 1.917
[1]; [7]
  Claudin-5/β-actin Relative Expression: 2.223 and 2.345 and 2.874 and 1.857
[1]; relative to Con (mean 1.000), single replicates, Figure 3D
  Claudin-5/β-actin Relative Expression: 1.649 and 1.456 and 1.174 and 1.405
[2]; hCMEC/D3 cells, 200 pg/ml GDNF or US-CM
  phosphorylation of ERK (p-ERK): accompanied by the phosphorylation
[2]; mean of 4, relative to Con, GDNF alone, Figure 3E
  p-ERK/ERK Relative Expression, Mean: 1.352
[2]; [4]
  p-ERK/ERK Relative Expression, Mean: 1.377
[2]; [6]
  p-ERK/ERK Relative Expression: 1.512 and 1.333 and 1.310 and 1.351
[2]; single replicate, relative to Con, GDNF alone, Figure 3E
  p-ERK/ERK Relative Expression: 1.315 and 1.511 and 1.307 and 1.277
[3]; hCMEC/D3 cells, 200 pg/ml GDNF
  phosphorylation of JNK: did not stimulate
[3]; [5]
  p-JNK/JNK Relative Expression Mean: 1.172
[3]; [7]
  p-JNK/JNK Relative Expression: 1.036 and 1.122 and 1.219 and 1.311
